Measured values as given in patent US11597951B2 (Lygos, Inc., priority 2018, dated 2023).

Tests used:
E. coli strain K12 = assay: In vivo production of malonate in E. coli using S. cerevisiae EHD3 malonyl-CoA hydrolases; type: cell-based; conditions: for Malonate Concentration: E. coli K12, M9 minimal medium, 30° C., 48 hours, mean±std dev, n=3; for malonate production relative to wild-type EHD3: E. coli K12, 48 hours
Method: This example describes the host cells and culture conditions resulting in the in vivo production of malonate using a heterologous EHD3 malonyl-CoA hydrolase in an E. coli host cell. E. coli strain K12 was transformed with vectors containing wild-type EHD3, EHD3 (E124A), […], EHD3 (E124S), EHD3 (E124A, E308V) or an empty vector negative control. Transformants were streaked on LB agar plates (Cm^50, 2% glucose). Following overnight growth at 37° C., individual colonies were inoculated into 3 ml LB (Cm^50, 2% glucose) in a 48-well plate. Cultures were incubated on a plate shaker at 37° C. for 6 hours, at which point each culture was inoculated 1% v/v into M9 minimal medium supplemented with Cm^50 and a mixed carbon source (0.5% glycerol, 0.05% glucose, 0.2% lactose) in a 48-well plate. Cultures were incubated on a plate shaker at 30° C., and a 500 μL sample of the fermentation broth was removed for analysis after 48 hours incubation.
Samples were centrifuged (×6000 g, 1 min) and the supernatant analyzed for malonate quantification. Chemical standards were prepared in […] of water. The separation of malonate was conducted on a Shimadzu Prominence XR UPLC connected to a refractive index detector and UV detector monitoring 210 nm. Product separation was performed on a Bio-Rad Fermentation Monitoring column. The UPLC was programmed to run isocratically using 5 mM H2504 as the eluant with a flow rate of 600 μL per minute. 10 μL were injected per sample, and the sample plate temperature was held at 4° C. Malonate standards began eluting at […]. […] Malonate concentrations (mg/1) were calculated by comparison to a standard curve prepared from authentic malonate.

S. cerevisiae = assay: Production of malonate in yeast expressing engineered FabD malonyl CoA:ACP transacylase; type: cell-based
Text: In this example, FabD from E. coli, a malonyl CoA:ACP transacylase (EC 2.3.1.39) having one or more of the following amino acid changes at the indicated positions: C92, H201, N201, D117, E117, N117, Y117, G117, H117, Q11, D11, Ell, N11, Y11, G11, H11, A93, V93, I93, F93, S93, G93 was employed as a malonyl-CoA hydrolase. The nucleic acid encoding E. coli FabD was PCR amplified from E. coli strain K12 using primer F1 (5′-[…]-3′) (SEQ ID NO: 43) and F2 (5′-[…]-3′) (SEQ ID NO: 44). The amplified gene was then mutated using standard methods and inserted into a shuttle expression plasmid under the control of the TEF1 promoter and upstream of the CYC1 terminator. This vector contains an ampicillin resistance cassette, a PMB1 origin of replication, a CEN/ARS origin of replication, and a URA3 selection marker. The individual mutational combinations assayed are listed with the results below.
Individual colonies were inoculated into 1 ml of yeast fermentation media comprising 5 g/L ammonium sulfate, 1 g/L monopotassium phosphate, 0.5 g/L magnesium sulfate, 0.1 g/L sodium chloride, 0.1 g/L calcium chloride, 2 mg/L inositol, 0.5 mg/L boric acid, 0.4 mg/L calcium pentothenate, 0.4 mg/L niacin, 0.4 mg/L pyridoxine hydrochloride, 0.4 mg/L thiamine HCl, 0.4 mg/L zinc sulfate, 0.4 mg/L manganese sulfate, 0.2 mg/L p-aminobenzoic acid, 0.2 mg/L riboflavin, 0.2 mg/L sodium molybdate, 0.2 mg/L ferric chloride, 0.1 mg/L potassium iodide, 40 μg/L copper sulfate, 2 μg/L folic acid, 2 μg/L biotin, 10 mg/L adenine, 50 mg/L L-arginine HCl, 80 mg/L L-aspartic acid, 20 mg/L L-histidine HCl, 50 mg/L L-isoleucine, 100 mg/L L-leucine, 50 mg/L L-lysine HCl, 20 mg/L methionine, 50 mg/L L-phenylalanine, 100 mg/L L-threonine, 50 mg/L L-tryptophan, 50 mg/L L-tyrosine, and 140 mg/L L-valine (the base media) containing 2% glucose as a carbon source. The cultures were incubated on a shaker at 30° C. for 24 h, and 20 μl of these cultures were used to inoculate production cultures of 2 ml of the same media. The production cultures were covered with a breathable membrane, incubated with shaking at 30° C. and sampled for HPLC analysis of product accumulation after 96 h and 168 h of growth.

## Wild-type EHD3: wild type S. cerevisiae EHD3 acyl-CoA hydrolase, SEQ ID NO:1
E. coli strain K12
  Malonate Concentration: 6.0 ± 0.2 mg/L

B1: EHD3 (E124V): S. cerevisiae EHD3 with point mutation E124V, malonyl-CoA hydrolase (protein, UniProt P28817 1-500, looked up, variant E124V)
Small ribosomal subunit …: MLRNTLKCAQLSSKYGFKTTTRTFMTTQPQLNVTDAPPVLFTVQDTARVITLNRPKKLNALNAEMSESMFKTLNEYAKSDTTNLVILKSSNRPRSFCAGGDVATVAIFNFNKEFAKSIKFFTDVYSLNFQIATYLKPIVTFMDGITMGGGVGLSIHTPFRIATENTKWAMPEMDIGFFPDVGSTFALPRIVTLANSNSQMALYLCLTGEVVTGADAYMLGLASHYVSSENLDALQKRLGEISPPFNNDPQSAYFFGMVNESIDEFVSPLPKDYVFKYSNEKLNVIEACFNLSKNGTIEDIMNNLRQYEGSAEGKAFAQEIKTKLLTKSPSSLQIALRLVQENSRDHIESAIKRDLYTAANMCMNQDSLVEFSEATKHKLIDKQRVPYPWTKKEQLFVSQLTSITSPKPSLPMSLLRNTSNVTWTQYPYHSKYQLPTEQEIAAYIEKRTNDDTGAKVTEREVLNHFANVIPSRRGKLGIQSLCKIVCERKCEEVNDGLRWK
E. coli strain K12
  malonate production relative to wild-type EHD3: decreased production of malonate
  Malonate Concentration: 0.28 ± 0.03 mg/L

B2: EHD3 (E124A): S. cerevisiae EHD3 with point mutation E124A, malonyl-CoA hydrolase (protein, UniProt P28817 1-500, looked up, variant E124A)
Small ribosomal subunit …: MLRNTLKCAQLSSKYGFKTTTRTFMTTQPQLNVTDAPPVLFTVQDTARVITLNRPKKLNALNAEMSESMFKTLNEYAKSDTTNLVILKSSNRPRSFCAGGDVATVAIFNFNKEFAKSIKFFTDAYSLNFQIATYLKPIVTFMDGITMGGGVGLSIHTPFRIATENTKWAMPEMDIGFFPDVGSTFALPRIVTLANSNSQMALYLCLTGEVVTGADAYMLGLASHYVSSENLDALQKRLGEISPPFNNDPQSAYFFGMVNESIDEFVSPLPKDYVFKYSNEKLNVIEACFNLSKNGTIEDIMNNLRQYEGSAEGKAFAQEIKTKLLTKSPSSLQIALRLVQENSRDHIESAIKRDLYTAANMCMNQDSLVEFSEATKHKLIDKQRVPYPWTKKEQLFVSQLTSITSPKPSLPMSLLRNTSNVTWTQYPYHSKYQLPTEQEIAAYIEKRTNDDTGAKVTEREVLNHFANVIPSRRGKLGIQSLCKIVCERKCEEVNDGLRWK
E. coli strain K12
  malonate production relative to wild-type EHD3: only a minor increase
  Malonate Concentration: 7.6 ± 0.7 mg/L

B3: EHD3 (E124A/E308V): S. cerevisiae EHD3 with mutations E124A and E308V, malonyl-CoA hydrolase (protein, UniProt P28817 1-500, looked up, variant E124A E308V)
Small ribosomal subunit …: MLRNTLKCAQLSSKYGFKTTTRTFMTTQPQLNVTDAPPVLFTVQDTARVITLNRPKKLNALNAEMSESMFKTLNEYAKSDTTNLVILKSSNRPRSFCAGGDVATVAIFNFNKEFAKSIKFFTDAYSLNFQIATYLKPIVTFMDGITMGGGVGLSIHTPFRIATENTKWAMPEMDIGFFPDVGSTFALPRIVTLANSNSQMALYLCLTGEVVTGADAYMLGLASHYVSSENLDALQKRLGEISPPFNNDPQSAYFFGMVNESIDEFVSPLPKDYVFKYSNEKLNVIEACFNLSKNGTIEDIMNNLRQYVGSAEGKAFAQEIKTKLLTKSPSSLQIALRLVQENSRDHIESAIKRDLYTAANMCMNQDSLVEFSEATKHKLIDKQRVPYPWTKKEQLFVSQLTSITSPKPSLPMSLLRNTSNVTWTQYPYHSKYQLPTEQEIAAYIEKRTNDDTGAKVTEREVLNHFANVIPSRRGKLGIQSLCKIVCERKCEEVNDGLRWK
E. coli strain K12
  Malonate Concentration: 8.35 ± 2.5 mg/L

B4: FabD S92C/L93V/R117H: engineered E. coli FabD malonyl CoA:ACP transacylase with S92C/L93V/R117H (protein, UniProt P0AAI9 2-309, looked up, variant S92C L93V R117H)
Malonyl CoA-acyl carrier …: TQFAFVFPGQGSQTVGMLADMAASYPIVEETFAEASAALGYDLWALTQQGPAEELNKTWQTQPALLTASVALYRVWQQQGGKAPAMMAGHCVGEYSALVCAGVIDFADAVRLVEMHGKFMQEAVPEGTGAMAAIIGLDDASIAKACEEAAEGQVVSPVNFNSPGQVVIAGHKEAVERAGAACKAAGAKRALPLPVSVPSHCALMKPAADKLAVELAKITFNAPTVPVVNNVDVKCETNGDAIRDALVRQLYNPVQWTKSVEYMAAQGVEHLYEVGPGKVLTGLTKRIVDTLTASALNEPSAMAAALEL
S. cerevisiae; 96 h of fermentation
  Malonate accumulation: 1.01 mM
S. cerevisiae; 168 h of fermentation
  Malonate accumulation: 2.49 mM

B5: FabD L93S/R117G: engineered E. coli FabD malonyl CoA:ACP transacylase with L93S/R117G (protein, UniProt P0AAI9 2-309, looked up, variant L93S R117G)
Malonyl CoA-acyl carrier …: TQFAFVFPGQGSQTVGMLADMAASYPIVEETFAEASAALGYDLWALTQQGPAEELNKTWQTQPALLTASVALYRVWQQQGGKAPAMMAGHSSGEYSALVCAGVIDFADAVRLVEMGGKFMQEAVPEGTGAMAAIIGLDDASIAKACEEAAEGQVVSPVNFNSPGQVVIAGHKEAVERAGAACKAAGAKRALPLPVSVPSHCALMKPAADKLAVELAKITFNAPTVPVVNNVDVKCETNGDAIRDALVRQLYNPVQWTKSVEYMAAQGVEHLYEVGPGKVLTGLTKRIVDTLTASALNEPSAMAAALEL
S. cerevisiae; 96 h of fermentation
  Malonate accumulation: 1.11 mM
S. cerevisiae; 168 h of fermentation
  Malonate accumulation: 2.89 mM

B6: FabD L931/R117Y: engineered E. coli FabD malonyl CoA:ACP transacylase variant, printed L931/R117Y (protein, UniProt P0AAI9 2-309, looked up, variant L93I R117Y)
Malonyl CoA-acyl carrier …: TQFAFVFPGQGSQTVGMLADMAASYPIVEETFAEASAALGYDLWALTQQGPAEELNKTWQTQPALLTASVALYRVWQQQGGKAPAMMAGHSIGEYSALVCAGVIDFADAVRLVEMYGKFMQEAVPEGTGAMAAIIGLDDASIAKACEEAAEGQVVSPVNFNSPGQVVIAGHKEAVERAGAACKAAGAKRALPLPVSVPSHCALMKPAADKLAVELAKITFNAPTVPVVNNVDVKCETNGDAIRDALVRQLYNPVQWTKSVEYMAAQGVEHLYEVGPGKVLTGLTKRIVDTLTASALNEPSAMAAALEL
S. cerevisiae; 96 h of fermentation
  Malonate accumulation: 1.47 mM
S. cerevisiae; 168 h of fermentation
  Malonate accumulation: 2.48 mM

B7: FabD L93I/R117Y: engineered E. coli FabD malonyl CoA:ACP transacylase with L93I/R117Y (protein, UniProt P0AAI9 2-309, looked up, variant L93I R117Y)
Malonyl CoA-acyl carrier …: TQFAFVFPGQGSQTVGMLADMAASYPIVEETFAEASAALGYDLWALTQQGPAEELNKTWQTQPALLTASVALYRVWQQQGGKAPAMMAGHSIGEYSALVCAGVIDFADAVRLVEMYGKFMQEAVPEGTGAMAAIIGLDDASIAKACEEAAEGQVVSPVNFNSPGQVVIAGHKEAVERAGAACKAAGAKRALPLPVSVPSHCALMKPAADKLAVELAKITFNAPTVPVVNNVDVKCETNGDAIRDALVRQLYNPVQWTKSVEYMAAQGVEHLYEVGPGKVLTGLTKRIVDTLTASALNEPSAMAAALEL
S. cerevisiae; 96 h of fermentation
  Malonate accumulation: 1.64 mM
S. cerevisiae; 168 h of fermentation
  Malonate accumulation: 3.47 mM
